Source: the supplement of paper PMC10724198
± gives the standard deviation of the averaged measurements.

test system: Saccharomyces cerevisiae; assay: protein stability index of tFT-peptide fusion (C-terminal peptide) (PSI (0-1 scale)); higher = more stable (slower turnover); conditions: genetic background: doa10 deletion; temperature: 30 C
Description: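 MPS profiling in S. cerevisiae of the tFT-X12 degron library: putative degron peptides plus stable controls, 12 aa, fused to the C-terminus of a sfGFP-mCherry timer. Cells are FACS-sorted into 8 mCherry/sfGFP bins and deep-sequenced. PSI runs from 0 (unstable) to 1 (stable). Backgrounds are wild type, das1Δ and doa10Δ at 30 °C, and wild type, das1Δ, cdc34-1 and cdc53-1 at 37 °C; 2-3 technical replicates each.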
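Further: PSI is a weighted mean of sequencing reads over stability bins, variants kept only with over 10 reads, mCherry proximal and sfGFP distal, peptide attached via GGGS linker.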

Sequence	protein stability index
SVSRIFRTFSCY	0.216 ± 0.035
SVVYVIYCGGIL	0.29 ± 0.0048
SWFRRPFPPRLL	0.048 ± 0.068
SWLAQCVVISLL	0.352 ± 0.0055
TALSRLFECFLS	0.328 ± 0.0048
TCGAKWIFSHIC	0.14 ± 0.0052
TFVGWIVWLCGS	0.216 ± 0.0069
TFVLREYVWVMS	0.202 ± 0.0032
TIKGRLNVRKIE	0.3538 ± 0.0019
TPYIFVLACLHV	0.274 ± 0.013
TRKKENERRKNG	0.245 ± 0.013
TSFCIFFVRFVI	0.277 ± 0.021
TVETYNRARKAS	0.218 ± 0.013
TVVIFLCSYITT	0.0829 ± 0.03
TYNVMFSPWRKA	0.106 ± 0.007
TYYPLNRSRFIG	0.108 ± 0.0073
VAALFPPLRFLN	0.0912 ± 0.013
VCFAWWGARCVA	0.304 ± 0.024
VCFFLFWCLSFS	0.348 ± 0.011
VCLCVIICSMSV	0.0265 ± 0.0033
VCQVCVCFLFWR	0.27 ± 0.018
VCVVVLVGVVFL	0.198 ± 0.0055
VELRNCYLLVKA	0.178 ± 0.018
VFFLAFYFYRCF	0.186 ± 0.0064
VFMSVAPVSVLG	0.154 ± 0.016
VFSAIPDWLILA	0.279 ± 0.013

Sequence	protein stability index
VFSVTVVFVSVL	0.168 ± 0.011
VFVGGVSVLILF	0.413 ± 0.0093
VFWLLVGLGCFS	0.41 ± 0.033
VFYWVGVLCGWG	0.252 ± 0.012
VGCMVVIWVLWG	0.145 ± 0.001
VGFCICISIMSF	0.09907 ± 0.00077
VGPLAPVCLLVL	0.325 ± 0.012
VILCSCSFVLRP	0.362 ± 0.026
VKIEVICRVSLI	0.338 ± 0.0092
VLCFFWWWCRVC	0.353 ± 0.02
VLFVRGHTLWLM	0.4861 ± 0.0031
VLSCIPRLAIAA	0.235 ± 0.0017
VLVVTAFTFSCP	0.319 ± 0.015
VLVVVRSLSFLS	0.308 ± 0.013
VNRRCWISRTLP	0.137 ± 0.039
VPASWLRMLAFC	0.0659 ± 0.0043
VRFSAVFVKVGV	0.377 ± 0.0083
VRIGCSLLFFLP	0.478 ± 0.015
VRSELHINSFIH	0.499 ± 0.047
VRTFVFLVGYCE	0.393 ± 0.035
VRVFSLVVCWVV	0.199 ± 0.004
VSSSFSVLVLLF	0.317 ± 0.02
VTLVIYVLVQLT	0.123 ± 0.02
VTTTWTWTVRLC	0.0752 ± 0.019
VVAALTPLITVA	0.151 ± 0.011
VVLAFFFWFFVG	0.25 ± 0.0047

Sequence	protein stability index
VVLRCGCLVFIN	0.0928 ± 0.0026
VVRMRPRLFSLY	0.186 ± 0.011
VVTFCCARVTKI	0.585 ± 0.026
VVTFLCPLVGHV	0.341 ± 0.017
VVWFCGFFFVMV	0.365 ± 0.031
VWCVFHVWSGRL	0.38 ± 0.007
VWFVFVCAVCVL	0.138 ± 0.033
VWGLGWLVVGVG	0.165 ± 0.0044
VWPLAFFLRFFI	0.247 ± 0.015
VWSSSYVPLGVY	0.231 ± 0.015
VWWTLWRVHMLG	0.106 ± 0.03
VYCLFLPLGVAF	0.146 ± 0.016
VYCLVLFFSQWC	0.353 ± 0.013
VYFPRLLVRVSW	0.436 ± 0.0082
WAIMGLIIFCLF	0.222 ± 0.0086
WGEAGRPAGRGA	0.644 ± 0.017
WGFLSVVCLSGV	0.384 ± 0.035
WGLGWRGALVAV	0.269 ± 0.0084
WGLPVGVESSGG	0.64 ± 0.012
WGRFFWGCGVWV	0.438 ± 0.016
WGRGYRWRIWDV	0.396 ± 0.01
WIGCTVKIASLY	0.219 ± 0.021
WLCLFRFLGVAY	0.185 ± 0.005
WLMVGVDWRFVG	0.0725 ± 0.015
WLSWATRRIVLG	0.384 ± 0.008
